The values below come from patent US20250269018A1, “COMBINED CANCER THERAPY WITH AN EPITHELIAL CELL ADHESION MOLECULE (EPCAM) INHIBITOR AND A HEPATOCYTE GROWTH FACTOR RECEPTOR (HGFR) INHIBITOR” (ACADEMIA SINICA, priority 2021, published 2025).

In assay [1] the test system is EpCAM. Nature of the assay: Antibody binding to EpCAM wild-type and mutants expressed in HEK293T cells (immunofluorescence, flow cytometry, cellular ELISA). On the set-up: species or system human. As to conditions: HEK293T; immunofluorescence, flow cytometry, cellular ELISA; FIG. 8E-8G. Here is the method:
FIGS. 8A to 8G. EpAb2-6 binds to both EGF-like domain I and II of EpCAM. HEK293T cells were transfected with full length or EGF like-domain deletion mutant EpCAM-V5. Antibody binding was assessed by (FIG. 8A) Western blotting, (FIG. 8B) flow cytometry, and (FIG. 8C) immunofluorescence. (FIG. 8D) EpCAM mutants were constructed with amino acid substitutions in the EGF-I (Y32A) and EGF-II (L94A, Y95A, or D96A) domains. EpCAM wild-type and mutant proteins were expressed in HEK293T cells. Binding of MT201, EpAb2-6 and EpAb23-1 to EpCAM wild-type and mutants were evaluated by (FIG. 8E) immunofluorescence, (FIG. 8F) flow cytometry, and (FIG. 8G) cellular ELISA.
A previous study identified the binding epitope of EpAb2-6 antibody as the LYD motif in EpCAM, which corresponds to amino acid residues 94-96; in particular, residue 95 (Y95) plays a major role in EpAb2-6 binding (Liao et al., 2015). […] Therefore, we wanted to determine whether the antibody binds to EpCAM at both EGF-like domains of EpEX (FIG. 8A, FIG. 8B, FIG. 8C). To confirm that EpAb2-6 recognizes the LYD motif in EpCAM, we constructed cDNA sequences encoding the first (aa 27-59; EGF-I domain) and second (aa 66-135; EGF-II/TY domain) EGF-like repeats of EpCAM. PCR-based site-directed mutagenesis was then used to introduce mutations into each domain (FIG. 8D). The reactivity of EpAb2-6 antibody toward these EpCAM mutants was evaluated by immunofluorescence (FIG. 8E), flow cytometry (FIG. 8F), and cellular ELISA (FIG. 8G).
For orientation: Flow cytometry measures light scatter and fluorescence of single cells or particles in a stream.

Assay [2] relates to ADAM17 and presenilin 2. Nature of the assay: Western blotting of RIP proteins ADAM17 and presenilin 2 in HCT116 cells. It is filed as cell-based, human. As to conditions: 10 μg/ml 16 h, then EpEX-His 50 nM 15 min, FIG. 7E. Here is the method:
FIGS. 7A to 7G. EpAb2-6 binds EpEX and induces apoptosis by F(ab′)2 and inhibits regulated intramembrane proteolysis (RIP) activation and HGFR signaling. (FIG. 7A) Binding affinity of IgG EpAb2-6 (mouse) and F(ab′)2 to EpEX-His (1 μg/ml) coated overnight was checked using ELISA (OD450). (FIG. 7B) HCT116 cells were treated with 100 μg/ml control IgG, Fc, or F(ab′)2 of EpAb2-6 for 24 h. The apoptotic and necrotic cells were quantified by fluorescein annexin V-FITC/PI double labeling. (FIG. 7C) HCT116 and HT29 cells were treated with 10 μg/ml control IgG, MT201, humanized EpAb2-6 (hEpAb2-6) or mouse hybridoma EbAb2-6 (mEpAb2-6) for 24 h. The apoptotic and necrotic cells were quantified by fluorescein annexin V-FITC/PI double labeling. (FIG. 7D) HCT116 cells were treated with 10 μg/ml control IgG, MT201, hEpAb2-6 or mEpAb2-6 for 16 h, followed by treatment with EpEX-His (50 nM) for 15 min. Levels of phosphorylated HGFR, AKT, and ERK, and (FIG. 7E) RIP proteins ADAM17 and presenilin 2 were examined by Western blotting. Anti-EpCAM antibody and crizotinib coordinately induces apoptosis in colon cancer cells. (FIG. 7F) HCT116 and HT29 cells were treated with 10 μg/ml NMIgG or EpAb2-6 and 4 μM HGFR inhibitor crizotinib for 24 h. The apoptotic and necrotic cells were quantified by fluorescein annexin V-FITC/PI double labeling. […] Cell invasion was assessed by a Transwell assay with matrigel after 24 h.
Whole cell extracts were prepared with RIPA buffer (50 mM Tris-HCl pH7.4, 1% NP-40, 0.5% Sodium deoxycholate, 0.1% SDS, 150 mM NaCl, 2 mM EDTA, 50 mM NaF). Protein concentrations of the cell lysates were determined by the Bradford assay. […]
Appropriate horseradish peroxidase-associated secondary antibodies (Millipore) were applied and the membranes were incubated at room temperature (RT) for 1 h. The protein bands were subsequently visualized with chemiluminescence reagents (Millipore) and detected on a BioSpectrum 600 Imaging system (UVP). The protein level was quantified from band intensity using Gel-Pro analyzer 3.1 (Media Cybernetics).
In general terms: Immunoblotting shows a protein as a band on a membrane.

In assay [3] the test system is HT29 cells. Description: Apoptosis assay, annexin V-FITC/PI double labeling, HT29. It is filed as cell-based, human. To be noted: 10 μg/ml 24 h, FIG. 7C. Here is the method: FIGS. 7A to 7G. EpAb2-6 binds EpEX and induces apoptosis by F(ab′)2 and inhibits regulated intramembrane proteolysis (RIP) activation and HGFR signaling. (FIG. 7A) Binding affinity of IgG EpAb2-6 (mouse) and F(ab′)2 to EpEX-His (1 μg/ml) coated overnight was checked using ELISA (OD450). (FIG. 7B) HCT116 cells were treated with 100 μg/ml control IgG, Fc, or F(ab′)2 of EpAb2-6 for 24 h. The apoptotic and necrotic cells were quantified by fluorescein annexin V-FITC/PI double labeling. (FIG. 7C) HCT116 and HT29 cells were treated with 10 μg/ml control IgG, MT201, humanized EpAb2-6 (hEpAb2-6) or mouse hybridoma EbAb2-6 (mEpAb2-6) for 24 h. The apoptotic and necrotic cells were quantified by fluorescein annexin V-FITC/PI double labeling. (FIG. 7D) HCT116 cells were treated with 10 μg/ml control IgG, MT201, hEpAb2-6 or mEpAb2-6 for 16 h, followed by treatment with EpEX-His (50 nM) for 15 min. Levels of phosphorylated HGFR, AKT, and ERK, and (FIG. 7E) RIP proteins ADAM17 and presenilin 2 were examined by Western blotting. Anti-EpCAM antibody and crizotinib coordinately induces apoptosis in colon cancer cells. (FIG. 7F) HCT116 and HT29 cells were treated with 10 μg/ml NMIgG or EpAb2-6 and 4 μM HGFR inhibitor crizotinib for 24 h. The apoptotic and necrotic cells were quantified by fluorescein annexin V-FITC/PI double labeling. (FIG. 7G) HCT116 and HT29 cells were treated with 10 μg/ml NMIgG or EpAb2-6 and 10 μM HGFR inhibitor crizotinib. Cell invasion was assessed by a Transwell assay with matrigel after 24 h.
Cells were seeded and treated with 10 μg/ml mAb or inhibitor for 6 h; an unrelated mouse myeloma immunoglobulin used at appropriate dilution served as the IgG2a (Invitrogen #02-6200) isotype control. Apoptotic cells were detected using Annexin V-FITC and PI, and were analyzed using a flow cytometer (BD Immmunocytometry Systems). Early apoptosis was measured with the Annexin V-FITC Apoptosis Detection kit II (BD Pharmingen). Late apoptotic nuclei were detected with propidium iodide (PI) staining.

Assay [4] deals with HCT116 cells. Nature of the assay: Apoptosis assay, annexin V-FITC/PI double labeling, HCT116. It is filed as cell-based, human. To be noted: 10 μg/ml 24 h, FIG. 7C.
In assay [5] the target is T1, EpCAM (Homo sapiens, UniProt P16422).
T1 sequence (P16422 24-314): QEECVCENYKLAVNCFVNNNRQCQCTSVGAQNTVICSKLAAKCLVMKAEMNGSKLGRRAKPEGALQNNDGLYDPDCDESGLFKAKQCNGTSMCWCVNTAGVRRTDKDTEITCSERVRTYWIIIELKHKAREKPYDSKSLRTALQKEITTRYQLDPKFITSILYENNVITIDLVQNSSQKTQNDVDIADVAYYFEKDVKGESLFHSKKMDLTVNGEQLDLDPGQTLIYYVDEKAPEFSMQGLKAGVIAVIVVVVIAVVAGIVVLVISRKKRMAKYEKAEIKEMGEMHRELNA
As to conditions: cited from earlier work.

Assay [6] concerns cancer cells. To be noted: comparison in the description; previous work; cited from earlier work.
In assay [7] the test system is HT29-Luc cells. Description: Orthotopic animal model, HT29-Luc. As to conditions: FIG. 9H, 9I.
Experimental: (FIG. 9C) Timeline of the experiment to evaluate EpAb2-6 and/or crizotinib in the in orthotopic animal models. (FIG. 9D) NOD/SCID mice received orthotopic implantation of HCT116-Luc cells and then were treated with control IgG (normal mouse IgG, NMIgG), crizotinib, EpAb2-6, or crizotinib combined with EpAb2-6 starting at 3 days after tumor inoculation (n=5). Tumor growth was monitored by examining bioluminescence with the IVIS 200 Imaging System. (FIG. 9E) HCT116-Luc tumor cells monitored by bioluminescence quantification. […] (FIG. 9H) NOD/SCID mice were orthotopically implanted with HT29-Luc cells and then treated with control IgG, crizotinib, EpAb2-6, or crizotinib combined with EpAb2-6 starting at 3 days after tumor inoculation (n=5). Tumor growth was monitored by examining bioluminescence with an IVIS 200 Imaging System. (FIG. 9I) HT29-Luc tumor cells monitored by bioluminescence quantification.
Orthotopic tumor models were created as previously reported (Chen et al., 2020). Briefly, NSCID mice were used for orthotopic implantation of HCT116 cells previously infected with Lenti-luc virus (lentivirus containing luciferase gene). […] Tumor development was monitored by bioluminescence imaging. […] Tumor progression was monitored by quantification of bioluminescence. Mouse survival was also monitored.
Assay [8] relates to HCT116 or HT29. Description: Metastatic and orthotopic animal models of colon cancer, overall statements.
Experimental: Colon cancer HCT116 or HT29 (5×10^6 cells/mouse) in PBS were injected into 4-6-week-old female NOD/SCID mice through the tail vein. Mice were then randomly assigned to different treatment groups by body weight. After 3 days, antibodies were administered through tail vein injection twice a week for four consecutive weeks. Crizotinib was administered daily by oral gavage for 5 days per week (treatment for four weeks). For the therapeutic study, tumor-bearing mice were treated with isotype control IgG1 (15 mg/kg), crizotinib (20 mg/kg), EpAb2-6 (15 mg/kg), or crizotinib (20 mg/kg) combined with EpAb2-6 (15 mg/kg). Mouse survival rate were measured.
Orthotopic tumor models were created as previously reported (Chen et al., 2020). Briefly, NSCID mice were used for orthotopic implantation of HCT116 cells previously infected with Lenti-luc virus (lentivirus containing luciferase gene). The mice were anesthetized by i.p. injection ofAvertin, 2,2,2-Tribromo-ethanol (Sigma-Aldrich) at a dose of 250 mg/kg. Tumor development was monitored by bioluminescence imaging. For the therapeutic study, tumor-bearing mice were treated with isotype control IgG1 (15 mg/kg), crizotinib (20 mg/kg), EpAb2-6 (15 mg/kg), or crizotinib (20 mg/kg) combined with EpAb2-6 (15 mg/kg). Tumor progression was monitored by quantification of bioluminescence. Mouse survival was also monitored.

“Also recorded” adds a separate entry of the source.

On to “MT201: human anti-EpCAM antibody, adecatumumab (MT201)”, for which, in assay [1], the “antibody binding to EpCAM with mutations at Y32 (EGF-I domain) or Y95 (EGF-II domain)” value is “did not affect”. Besides, in assay [2], the “levels of phosphorylated ADAM17 and presenilin 2” value was “no such effects”. In addition, the apoptosis entry in assay [3] and in assay [4] was “did not show such effects” throughout. Also, the EpCAM domains bound entry in assay [5] (other anti-EpCAM antibodies, comparison in the description) is reported as “target only the well-described EGF I domain of EpCAM; also recorded: binding to domain I only”. For the same molecule, the “inducing apoptosis of cancer cells” value in assay [6] is “failing to”.

B1: EpAb2-6: anti-EpCAM neutralizing monoclonal antibody targeting EpEX; VH SEQ ID NO: 15, VL SEQ ID NO: 16 (antibody, listed as Homo sapiens, V domains shown)
VH: VKLQESGPELKKPGETVKISCKASGYTFTDYSMHWVKQAPGKGLKWMGWINTETGEPTYADDFKGRFAFSLETSASTAYLQINNLKNEDTATYFCARTAVYWGQGTTVTVSS
VL: DIQMTQSPSSLSASLGERVSLTCRASQEISVSLSWLQQEPDGTIKRLIYATSTLDSGVPKRFSGSRSGSDYSLTISSLESEDFVDYYCLQYASYPWTFGGGTKLEIKRADAAPTVS
With B1, in assay [1], the “antibody binding to EpCAM with mutations at Y32 (EGF-I domain) or Y95 (EGF-II domain)” value is reported as “marked reductions”. Moreover, in assay [7], the bioluminescence intensities entry is recorded as “significantly decreased compared to the control IgG or crizotinib alone groups”. In assay [2], the “levels of phosphorylated ADAM17 and presenilin 2” value is reported as “decreased”. For the same molecule, the apoptosis result in assay [3] is reported as “inducing apoptosis”. Besides, in assay [8], the survival result is reported as “higher median survival than the control IgG- or crizotinib-treated groups” and the tumor progression entry was “much slower tumor progression”. The apoptosis result in assay [4] is reported as “inducing apoptosis”. Further, the “binding epitope in EpCAM” value in assay [5] (previous study (Liao et al., 2015)) is reported as “LYD motif”. Moreover, the “inducing apoptosis of cancer cells” value in assay [6] is given as “induces cancer cell apoptosis”.
